Measurements as given in patent US6410239B1, “Identification and comparison of protein—protein interactions that occur in populations and identification of inhibitors of these interactors” (CuraGen Corporation, priority 1996, dated 2002).

Tests used:
VEGF = target: T1, VEGF (Homo sapiens, UniProt P15692); details: cited from earlier work
T1 sequence (P15692 207-395): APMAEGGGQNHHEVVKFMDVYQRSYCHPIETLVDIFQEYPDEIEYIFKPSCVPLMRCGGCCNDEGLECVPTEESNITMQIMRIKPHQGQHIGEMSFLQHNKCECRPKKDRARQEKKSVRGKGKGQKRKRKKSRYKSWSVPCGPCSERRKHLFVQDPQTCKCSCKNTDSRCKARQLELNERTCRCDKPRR

[1] = target: T2, YULH(R4-GBD) and N106′ (FKBP-12-GAD) interacting hybrid proteins (Homo sapiens, UniProt P62942); test: 5-FOA assay identifying cells containing a non-genetically-encoded inhibitor of protein-protein interaction; format: cell-based, yeast
T2 construct: These primers flank the entire coding region of the FKBP-12 protein; expressed in transfected cells; host or cells: Saccharomyces cerevisiae YULH(R4-GBD) x N106'(FKBP-12-GAD)
T2 sequence (P62942 whole entry): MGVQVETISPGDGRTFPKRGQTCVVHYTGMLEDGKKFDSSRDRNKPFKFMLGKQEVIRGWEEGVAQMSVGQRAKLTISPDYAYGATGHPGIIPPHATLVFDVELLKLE
Procedure: The above method described for the isolation of inhibitor peptides can also be used to screen and isolate inhibitors that are not genetically encoded. In other contexts, for example, a yeast-based transcription-inhibition assay has been used to screen for inhibitors of the HIV-1 proteinase (Murray et al., 1993, Gene 134:123-128). The reporter strains YULH(R4-GBD) and N106′ (FKBP-12-GAD), that harbor the reporter gene-systems and the two interacting proteins are grown in a 96-well format with each well containing 200 μl of media that selects for both the GBD and GAD plasmids (SC-LEU-TRP).
After a growth period (24-36 hours) that is sufficient for early log-phase growth (a cell density of 1×10^7 cells/ml), the cells are exposed to an RNA inhibitor at a concentration of 100 nM for 1-2 hours. This RNA inhibitor is of the sequence 5′-[…]-3′ (SEQ ID NO:35). The pyrimidines in this RNA are modified with 2′-amino-2-deoxypyrimidines that causes the RNA to be resistant to nucleases. This RNA binds with high affinity to VEGF (Green et al., 1995, Current Biol. 2:683-695). […]
In the absence of the RNA inhibitor, cells are not able to grow in 5-FOA. […] The activity of the lacZ gene is determined by assaying the β-galactosidase activity of the cells as mentioned in Section 6.1.11. […]

[2] = target: T3, interaction between the RAF-GAD and RAS-GBD proteins (Homo sapiens, UniProt P04049); test: Peptide expressed from pPEV1 tested for inhibition of the RAS-RAF interaction in yeast mating two-hybrid assay; format: cell-based
T3 construct: expressed in transfected cells; host or cells: Saccharomyces cerevisiae diploids of YULH-RAFINT (RAF-GAD integrated at MER2) x N106' (RAS-GBD plasmid)
Source text: These oligonucleotides also introduced unique restriction sites (EagI and SphI) that facilitate the cloning of the amplified DNA fragments into the integration vector R1400. The R1400 plasmid vector consists of two yeast genes LYS2 (Fleig et al., 1986, Gene 46:237-245) and MER2 (Engebrecht et al., 1991, Cell 66:1257-1268). The LYS2 marker is used for the selection of integration events, while, the MER2 gene is used for integration of the entire plasmid into the yeast genome. MER2 is a gene that is not essential for the vegetative growth of yeast. The RAF-GAD gene was cloned into the R1400 plasmid to yield RAF-INT. This plasmid was then digested with the restriction enzyme PstI that has a site in the MER2 gene. The restriction was done in a partial manner as there are other PstI sites in the plasmid vector. The restriction digestion was allowed to proceed only for 1 minute and then the enzyme was inactivated by extracting with phenol-chloroform and the DNA was then precipitated. This linearized DNA was used to transform the YULH strain to yield YULH-RAFINT. Integration occurs at the MER2 locus, and the integration events were selected by growing the transformants on media lacking lysine. The N106′ strain was transformed with the RAS-GBD plasmid to form N106′ (RAS-GBD). The proper functioning of the RAF-GAD fusion was confirmed by mating YULH-RAFINT and N106′ (RAS-GBD) and observing the resultant activation of the URA3 and the lacZ Reporter Genes.
The PEVs serve to express and localize peptides (or proteins) in the nucleus of the yeast cell where their potential to inhibit specific protein-protein interactions is tested. This inhibitory activity of the peptides is monitored by their ability to inhibit the activity of the reporter genes like URA3, HIS3 and lacZ.
The PEVs comprise the following operably linked components (FIG. 7): an ADC1 promoter (ADC1-P) for supporting transcription in yeast (Ammerer, 1983, Meth. Enymol. 101:192-201); a nucleotide sequence encoding an SV40 Nuclear Localization Signal (NLS) for transporting the peptide to the nucleus (Dingwal and Laskey, 1991, Trends. Biochem. Sci. 16:478); followed by a stop codon (UAG) for terminating translation; means for inserting a DNA sequence encoding a candidate inhibitor peptide into the PEV in such a manner that the candidate inhibitor peptide is capable of being expressed as part of a fusion protein containing the NLS; and an ADC1 transcription termination signal. The NLS from SV40 large T comprises a 7 amino acid stretch (PKKKRKV) (SEQ ID NO:20) that has been successfully used in targeting proteins into the yeast nucleus (Benton et al., 1990, Mol. Cell. Biol. 10:353-360). […]

Row | Substance | binding affinity to VEGF (VEGF) | growth in SC-TRP-LEU in the absence of 5-FOA, in the presence of the inhibitor ([1]; RNA inhibitor at 100 nM) | growth in media containing 5-FOA and uracil ([1]; RNA inhibitor at 100 nanomolar, without inhibitor cells are not able to grow in 5-FOA) | β-galactosidase activity (lacZ reporter) of diploids ([2]; YULH2RAS (pPEVRAS-E) mated to N106′(RAS-GBD), control diploids are LACZ+) | growth of diploids on media lacking uracil (URA3 reporter) ([2]; YULH2RAS (pPEVRAS-E) mated to N106′(RAS-GBD), control diploids are URA+) | growth of diploids on medium containing 5-FOA ([2]; YULH2RAS (pPEVRAS-E) mated to N106′(RAS-GBD), control diploids unable to grow) | inhibition of the protein-protein interaction ([2]; peptide expressed in the yeast nucleus from pPEV1)
1 | 5′-CCCUGAUGGUAGACCGGGGUG-3′ (chemistry not fully specified) [RNA inhibitor] | high affinity | able to grow | Growth is evident |  |  |  | 
2 | RAS effector peptide: RAS amino acids 17-40, from a region important for interaction with RAF, expressed from pPEVRAS-E (SALTIQLIQNHFVDEYDPTIEDSY; UniProt P01112 17-40, looked up, fragment) |  |  |  | negative for β-galactosidase activity | unable to grow on media lacking uracil | grow on medium containing 5-FOA | inhibits the interaction
